Measurements reported in patent US20260256941A1.

Target: PD-1 receptor on the surface of T cells (human) (UniProt Q15116)
Experiment: cell-based or functional assay

Sequence of UniProt Q15116 (Q15116 25-288): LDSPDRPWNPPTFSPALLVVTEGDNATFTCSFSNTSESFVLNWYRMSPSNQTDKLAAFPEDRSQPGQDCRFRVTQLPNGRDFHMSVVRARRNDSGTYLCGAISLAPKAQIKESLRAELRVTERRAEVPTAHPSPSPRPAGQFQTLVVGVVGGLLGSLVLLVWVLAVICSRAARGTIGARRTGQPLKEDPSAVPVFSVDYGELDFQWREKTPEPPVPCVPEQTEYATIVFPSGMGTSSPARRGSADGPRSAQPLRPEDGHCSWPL

Which percentage of activated (CD8+CD25+) T cells, flow cytometry; PD-L1 traditional exosome; unmodified exosome 34.1% does the source give for “PD-L1 traditional exosome (PD-L1 displayed by traditional engineering methods) (ligand)” here?
The percentage of activated (CD8+CD25+) T cells, flow cytometry; PD-L1 traditional exosome; unmodified exosome 34.1% was 22.5%.
